Results: publication PMC3950713
Where two headings read alike, the source gives them in different places.

Legend:
[1] = biological target: HpDprA(5-217), C-terminally truncated Helicobacter pylori DprA (H. pylori strain 26695) (UniProt B5ZAA1); assay: static light scattering
[2] = biological target: HpDprA(5-217), C-terminally truncated Helicobacter pylori DprA (H. pylori strain 26695) (UniProt B5ZAA1); assay: SEC
[3] = biological target: HpDprA(5-217), C-terminally truncated Helicobacter pylori DprA (H. pylori strain 26695) (UniProt B5ZAA1); assay: crystal structure
[4] = biological target: Full-length Helicobacter pylori DprA (DNA processing protein A, HP0333) (H. pylori strain 26695) (UniProt B5ZAA1); assay: SEC
[5] = biological target: HpDprA(5-225), C-terminally truncated Helicobacter pylori DprA (H. pylori strain 26695) (UniProt B5ZAA1)
[6] = biological target: HpDprA(5-225), C-terminally truncated Helicobacter pylori DprA (H. pylori strain 26695) (UniProt B5ZAA1); assay: crystal structure
HpDprA full-length = biological target: T1, HpDprA full-length (Helicobacter pylori 26695, UniProt O25100 1-270); assay: EMSA
T1 sequence: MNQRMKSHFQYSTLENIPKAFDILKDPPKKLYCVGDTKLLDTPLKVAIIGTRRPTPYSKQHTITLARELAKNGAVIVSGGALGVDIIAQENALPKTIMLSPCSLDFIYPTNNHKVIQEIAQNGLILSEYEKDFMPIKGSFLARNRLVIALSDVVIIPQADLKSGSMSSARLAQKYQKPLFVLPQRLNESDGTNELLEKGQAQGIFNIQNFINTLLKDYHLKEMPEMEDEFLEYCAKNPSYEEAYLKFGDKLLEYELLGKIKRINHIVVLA

HpDprA(5-217)WT [7] = biological target: T2, HpDprA(5-217)WT (Helicobacter pylori 26695, UniProt O25100 5-217); assay: MST
T2 sequence: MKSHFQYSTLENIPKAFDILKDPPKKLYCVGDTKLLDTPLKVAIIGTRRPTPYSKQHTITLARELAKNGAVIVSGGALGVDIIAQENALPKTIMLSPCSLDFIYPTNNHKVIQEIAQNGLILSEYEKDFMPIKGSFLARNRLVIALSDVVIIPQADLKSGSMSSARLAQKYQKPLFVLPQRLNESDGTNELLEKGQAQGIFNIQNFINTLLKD

HpDprA(5-217)WT [8] = biological target: T2, HpDprA(5-217)WT; assay: SEC/SLS
HpDprA(5-217)WT [9] = biological target: T2, HpDprA(5-217)WT; assay: EMSA
HpDprA(5-217)WT [10] = biological target: T2, HpDprA(5-217)WT; assay: EMSA; remark: listed apart in the source

With “HpDprA(5-217), C-terminally truncated Helicobacter pylori DprA (from UniProt B5ZAA1 5-217) (domain or fragment)” as the molecule, how does the stoichiometry N [1] read?
Its stoichiometry N is 2.

What about the stoichiometry N [2] of the same molecule?
The stoichiometry N was 2.

And the stoichiometry N [3]?
The stoichiometry N was 2.

Which stoichiometry N [4] does the source give for “Full-length Helicobacter pylori DprA (DNA processing protein A, HP0333) (from UniProt B5ZAA1 1-266) (natural protein)” here?
The stoichiometry N was 2.

“HpDprA(5-225), C-terminally truncated Helicobacter pylori DprA (from UniProt B5ZAA1 5-225) (domain or fragment)” was tested. Which stoichiometry N [5] did it give?
Its stoichiometry N is 2.

And the stoichiometry N [6]?
The stoichiometry N was 2.

Does TACCTAACTGGATGAATCTGAGAACTACTGTGAAT (ssDNA) [dR35] bind (HpDprA full-length)?
Result: binds

Does TTTTTT (ssDNA) [dT6] bind (HpDprA(5-217)WT [7])?
Result: no binding

CCACAACTGGATGATGCGGCGAAGTACTGT (ssDNA) [dR30] was tested. Which Kd (HpDprA(5-217)WT [7]) did it give?
The Kd was 370 ± 8.82 nM.

B1: dT60 (ssDNA)
DNA: TTTTTTTTTTTTTTTTTTTTTTTTTTTTTTTTTTTTTTTTTTTTTTTTTTTTTTTTTTTT
Does B1 bind (HpDprA(5-217)WT [8])?
Result: binds

For AAAAAAAAAAAAAAAAAAAAAAAAAAAAAAAAAAA (ssDNA) [dA35], which Kd (HpDprA(5-217)WT [7]) is on record?
The Kd was 1200 ± 35.3 nM.

Does TTTTTTTTTTTTTTTTTTTTTTTTTTTTTTTTTTTTTTTTTTTTTTTTTT (ssDNA) [dT50] bind (HpDprA(5-217)WT [9])?
Result: binds

B2: dsDNA30 (dsDNA)
DNA 1: CCACAACTGGATGATGCGGCGAAGTACTGT
DNA 2: ACAGTACTTCGCCGCATCATCCAGTTGTGG
How did the Kd (HpDprA(5-217)WT [7]) turn out when B2 was run?
Its Kd is 831 ± 8.48 nM.

Does TTTTTTTTTT (ssDNA) [dT10] bind (HpDprA(5-217)WT [7])?
Result: no binding

Does TTTTTTTTTTTTTTTTTTTT (ssDNA) [dT20] bind (HpDprA(5-217)WT [10])?
Result: binds

Does TTTTTTTTTTTTTTTTTTTTTTTTTTTTTTTTTTTTTTTT (ssDNA) [dT40] bind (HpDprA(5-217)WT [9])?
Result: binds
